How the values were obtained:
Assay type in all cases: in vivo
[1] = tested on: C57B/6 mice with impaired cardiac function due to experimental myocardial infarction; assay: β-adrenergically triggered ventricular tachyarrhythmias in failing mouse hearts
Protocol: (§1) The therapeutic window of viral-based re-expression and augmentation of myocardial S100A1 protein concentrations in mice with impaired cardiac function was then analysed. The results for S100A1 dose-dependency in normal mice provides the basis for determining the therapeutic window of S100A1 re-expression in C57B/6 mice with impaired cardiac function due to experimental myocardial infarction through temporary occlusion of the left anterior coronary artery as technically described in detail in Brinks et al. Circ Res (2010) 107; 1140-1149. Techniques for intravenous application of AAV9 for gradual increases in global myocardial transgene expression are described in detail in Voelkers et al. Circ Res (2011) 108; 27-39; in Most et al. JCI (2004) 114; 1550-1563 echocardiography for cardiac function analysis. […] Total S100A1 protein amount in murine myocardium was assessed by ELISA as described in detail in Example 4. S100A1 concentrations were measured by Western Blot as described by Most et al. JCI (2004) 114; 1550-1563 using a custom-made rabbit anti-S100A1 polyclonal IgG antibody (SA 5632). […] Conversion between n-fold relative changes assessed by WB and total myocardial S100A1 protein measured by ELISA is given by the second x-axis. […]

[2] = tested on: domestic pigs with impaired cardiac function (post-ischemic heart failure); assay: Cardiac function (LV EF %, LV+dp/dt max) in failing pig hearts
Text: (§2) This Example details the therapeutic window of viral-based re-expression and augmentation of myocardial S100A1 protein concentrations in domestic pigs with impaired cardiac function. The results for S100A1 dose-dependency in heart failure mice provide the base for determining the therapeutic window of S100A1 re-expression animal models that approximate human weight, size and cardiovascular anatomy and pathophysiology. Post-ischemic heart failure in pigs was induced by experimental myocardial infarction through temporary occlusion of the left circumflex coronary artery by percutaneous balloon occlusion. S100A1 re-expression and overexpression was achieved by retrograde intravenous application of increasing dosages of AAV6-S100A1 with S100A1 expression controlled by a cardiac specific promoter element. Analytical techniques and molecular tools used to this end are described in detail in Pleger et al. Science Translational Medicine (2011) 3, 92ra64. AAV6 was used in addition to AAV9 exploiting its greater myocardial transduction efficacy of AAV6 to achieve increasing myocardial S100A1 protein concentrations. S100A1 re-/overexpression 1.6, 6, 20 and 50 fold corresponds to intravenous AAV9-S100A1 dosages (total virus particles; tvp) of 1.5×10^13 (1.6-fold) and AAV6-S100A1 dosages of 1.5×10^11 (6-fold), 1.5×10^12 (20 fold) and 1.5×10^13 (50-fold), respectively. […]

[3] = tested on: C57B/6 mice with normal cardiac function; assay: Cardiac performance (echocardiography, LV EF %) versus myocardial S100A1 protein level in normal mice
Protocol: The range of myocardial S100A1 protein expression that conveys cardiac performance enhancement in mice with normal cardiac function is determined by the use of AAV9-mediated human S100A1 cDNA myocardial delivery. The cardiac performance with respect to gradually increasing myocardial S100A1 protein levels was assessed in normal 6 months old C57B/6 mice with the aim to determine the efficient dose range of S100A1 protein concentrations in normal myocardium for acute and sustained enhancement of cardiac function in vivo. Techniques used are described in detail in Voelkers et al. Circ Res (2011) 108; 27-39 employing intravenous application of AAV9 for a gradual increase in global myocardial transgene expression; in Most et al. JCI (2004) 114; 1550-1563 for echocardiography for cardiac function analysis. AAV9-S100A1 and corresponding control vector generation and use of the cardiac specific promoter element to drive expression of both transgenes is described in detail in Pleger et al. Science Translational Medicine (2011) 3, 92ra64. The S100A1 overexpression (2, 4, 8, 20 and 50 fold) corresponds to intravenous AAV9-S100A1 dosages (total virus particles; tvp) 5×10^10, 1×10^11, 2×10^11, 5×10^11, 1×10^12 respectively. Total S100A1 protein amount in murine myocardium was assessed by ELISA as described in detail in Example 4. S100A1 concentrations were measured by Western Blot as described by Most et al. JCI (2004) 114; 1550-1563 using a custom-made rabbit anti-S100A1 polyclonal IgG antibody (SA 5632). 0.83 μg S100A1 protein/g wet weight myocardium equals normal S100A1 values in healthy left ventricular myocardium and has been set as 1 for relative comparison. Conversion between n-fold relative changes assessed by WB and total myocardial S100A1 protein measured by ELISA is given by the second x-axis. […] The biologically effective S100A1 dosages fall into the range between 0.83 to 41.5 μg S100A1 protein/g wet weight myocardium and peak actions relate to 3.32 μg S100A1 protein (assessed by ELISA).

[4] = tested on: C57B/6 mice with impaired cardiac function due to experimental myocardial infarction; assay: CrP/ATP ratio as surrogate for cardiac metabolism in failing mouse hearts
Protocol: as §1

[5] = tested on: domestic pigs with impaired cardiac function (post-ischemic heart failure); assay: β-adrenergically triggered ventricular tachyarrhythmias, large animal model; settings: large animal example, FIG. 8
Text: as §2

[6] = tested on: C57B/6 mice with impaired cardiac function due to experimental myocardial infarction; assay: Cardiac function (LV EF %, LV+dp/dt max) in failing mouse hearts
Protocol: The therapeutic window of viral-based re-expression and augmentation of myocardial S100A1 protein concentrations in mice with impaired cardiac function was then analysed. The results for S100A1 dose-dependency in normal mice provides the basis for determining the therapeutic window of S100A1 re-expression in C57B/6 mice with impaired cardiac function due to experimental myocardial infarction through temporary occlusion of the left anterior coronary artery as technically described in detail in Brinks et al. Circ Res (2010) 107; 1140-1149. Techniques for intravenous application of AAV9 for gradual increases in global myocardial transgene expression are described in detail in Voelkers et al. Circ Res (2011) 108; 27-39; in Most et al. JCI (2004) 114; 1550-1563 echocardiography for cardiac function analysis. AAV9-S100A1 and corresponding control vector generation and use the cardiac specific promoter element to drive expression of both transgenes is described in detail in Pleger et al. Science Translational Medicine (2011) 3, 92ra64. The S100A1 re-/overexpression 0.7, 2, 4, 8, 20 and 50 fold corresponds to intravenous AAV9-S100A1 dosages (total virus particles; tvp) 2×10^10 ′, 5×10^10, 1×10^11, 2×10^11, 5×10^11, 1×10^12 respectively. Total S100A1 protein amount in murine myocardium was assessed by ELISA as described in detail in Example 4. S100A1 concentrations were measured by Western Blot as described by Most et al. JCI (2004) 114; 1550-1563 using a custom-made rabbit anti-S100A1 polyclonal IgG antibody (SA 5632). Total S100A1 protein amounts below 0.83 μg S100A1 protein/g wet weight myocardium characterizes failing left ventricular myocardium with impaired contractile function. Conversion between n-fold relative changes assessed by WB and total myocardial S100A1 protein measured by ELISA is given by the second x-axis.
Therapeutic actions peak around 4-fold S100A1 overexpression relating to a total S100A1 protein amount of 3.32 μg S100A1 protein/g wet weight myocardium. The S100A1 therapeutic window of contractile performance enhancement falls into the range between 0.25 and 41.4 μg S100A1 protein/g wet weight myocardium. Values reflect the relative range from re-expression to normal and up to 50 fold relative increase in S100A1 protein levels.

[7] = tested on: domestic pigs with impaired cardiac function (post-ischemic heart failure); assay: CrP/ATP as surrogate for cardiac metabolism in failing pig myocardium; settings: re-expression to normal and up to a 50 fold increase
Text: as §2

[8] = re-expression to normal and up to a 50 fold increase

B1: S100A1: EF-hand calcium-binding protein of the S100 family; human S100A1 expressed in myocardium from AAV-delivered cDNA (protein, UniProt P23297 1-94, looked up)
Protein S100-A1: MGSELETAMETLINVFHAHSGKEGDKYKLSKKELKELLQTELSGFLDAQKDVDAVDKVMKELDENGDGEVDFQEYVVLVAALTVACNNFFWENS
[1]; above the therapeutic window
  effect of further increase in cardiac S100A1 protein concentrations: complete loss of S100A1's therapeutic anti-arrhythmic actions
[1]; [8]
  β-adrenergically triggered ventricular tachyarrhythmias: prevents β-adrenergically triggered ventricular tachyarrhythmias
[2]; above the therapeutic window
  effect of further increase in cardiac S100A1 protein concentrations: complete loss of S100A1's therapeutic actions
[2]; [8]
  cardiac function assessed by LV EF % and LV+dp/dt max: restores and improves cardiac function
[3]; anesthetized normal mice, compared to normal S100A1 protein levels, assessed by WB
  increase of cardiac S100A1 protein concentrations at which left ventricular ejection fraction (LV EF %) peaks: 4-6 fold
[3]; normal mice, above the effective range
  effect of further increase in cardiac S100A1 protein concentrations: loss of the S100A1-mediated contractile performance enhancement
[3]; normal mice, assessed by ELISA
  S100A1 protein amount of peak actions: 3.32 μg S100A1 protein
[4]; above the therapeutic window
  effect of further increase in cardiac S100A1 protein concentrations: complete loss of S100A1's therapeutic anti-arrhythmic actions
[4]; [8]
  CrP/ATP ratio as surrogate for cardiac metabolism restoration: improves the CrP/ATP ratio
[5]; above the therapeutic window
  effect of further increase in cardiac S100A1 protein concentrations: complete loss of S100A1's therapeutic actions
[5]; [8]
  β-adrenergically triggered ventricular tachyarrhythmias: prevents β-adrenergically triggered ventricular tachyarrhythmias
[6]
  S100A1 overexpression at which therapeutic actions peak: around 4 fold
  total S100A1 protein amount at which therapeutic actions peak: 3.32 μg S100A1 protein/g wet weight myocardium
[6]; S100A1 re-expression and over-expression
  cardiac function assessed by LV EF % and LV+dp/dt max: restores and improves cardiac function
[6]; above the therapeutic window
  effect of further increase in cardiac S100A1 protein concentrations: complete loss of S100A1's therapeutic performance enhancement
[7]
  CrP/ATP as a surrogate for cardiac metabolism restoration: improves the CrP/ATP

Reference: patent US10792329B2, “S100 based treatment of cardiac power failure” (Ruprecht-Karls-Universitat Heidelberg, priority 2013, dated 2020)
